Like-named read-outs stand apart in the source and are kept apart here.
T1: NEQ395 (Nanoarchaeum equitans, UniProt Q74N22)
T1 sequence (Q74N22 1-393): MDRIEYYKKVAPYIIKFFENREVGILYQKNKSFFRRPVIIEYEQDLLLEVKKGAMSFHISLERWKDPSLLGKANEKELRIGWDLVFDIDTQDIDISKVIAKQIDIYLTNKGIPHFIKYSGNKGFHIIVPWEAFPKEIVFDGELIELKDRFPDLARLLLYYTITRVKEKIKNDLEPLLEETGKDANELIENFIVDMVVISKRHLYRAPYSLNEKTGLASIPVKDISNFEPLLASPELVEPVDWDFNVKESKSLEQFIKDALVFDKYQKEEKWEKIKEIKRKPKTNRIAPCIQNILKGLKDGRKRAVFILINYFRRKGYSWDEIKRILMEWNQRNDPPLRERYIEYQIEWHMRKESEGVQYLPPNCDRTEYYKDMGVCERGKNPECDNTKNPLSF

T2: NEQ395 DNA primase (monomeric PriS-PriL) (Nanoarchaeum equitans, UniProt Q74N22 1-393)
T2 sequence: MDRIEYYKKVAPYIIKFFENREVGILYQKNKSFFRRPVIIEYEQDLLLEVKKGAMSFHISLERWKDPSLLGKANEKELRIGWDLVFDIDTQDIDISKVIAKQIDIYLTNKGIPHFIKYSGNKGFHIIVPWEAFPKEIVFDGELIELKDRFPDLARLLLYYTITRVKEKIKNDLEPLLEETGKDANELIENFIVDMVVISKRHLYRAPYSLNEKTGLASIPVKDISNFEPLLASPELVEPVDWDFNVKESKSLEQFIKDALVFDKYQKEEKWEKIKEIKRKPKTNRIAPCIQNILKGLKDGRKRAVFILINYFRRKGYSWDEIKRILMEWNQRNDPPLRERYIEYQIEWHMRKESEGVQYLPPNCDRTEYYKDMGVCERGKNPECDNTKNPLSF


Tests used:
NEQ395 = biological target: T1, NEQ395; assay: RP-HPLC primase assay with omission of single rNTPs; assay type: biochemical; conditions: pH 6.5, 70°C
[1] = biological target: T2, NEQ395 DNA primase (monomeric PriS-PriL); assay: fluorescence anisotropy
[2] = biological target: T2, NEQ395 DNA primase (monomeric PriS-PriL); assay: fluorescence anisotropy; remark: listed apart in the source
[3] = biological target: T2, NEQ395 DNA primase (monomeric PriS-PriL); assay: fluorescence anisotropy; remark: listed apart in the source

| Molecule | Kd [1] [nM] | Kd [3] [nM] | also measured |
| --- | --- | --- | --- |
| Nc1nc2c(ncn2[C@@H]2O[C@H](COP(=O)(O)OP(=O)(O)OP(=O)(O)O)[C@@H](O)[C@H]2O)c(=O)[nH]1 [GTP] |  |  | RP-HPLC primase assay with omission of single rNTPs (NEQ395; elongating nucleotide, ssDNA template Fid2, Mn2+): In presence of GTP, extension to the full-length primers occurs. |
| Nc1ncnc2c1ncn2[C@@H]1O[C@H](COP(=O)(O)OP(=O)(O)OP(=O)(O)O)[C@@H](O)[C@H]1O [ATP] |  |  | RP-HPLC primase assay with omission of single rNTPs (NEQ395; initiating nucleotide, ssDNA template Fid1-4, Mn2+): using an rNTP mix without ATP (the first cognate base needed for synthesis) did not initiate |
| CTATACTCA (ssDNA) [t9] | 1060 |  | Kd [2]: 580 nM |
| CTGTGCTCA (ssDNA) [t9-ATA (lacks ATA)] | 2870 |  |  |
| TGTAAAACGACGGCCAGT (ssDNA) [t18] |  | 510 |  |
| t18_ds (dsDNA) DNA 1: TGTAAAACGACGGCCAGT DNA 2: ACTGGCCGTCGTTTTACA |  | 650 |  |
